# Source: article PMC10774444, “BPG4 regulates chloroplast development and homeostasis by suppressing GLK transcription factors and involving light and brassinosteroid signaling”
# T1: GST-GLK1 (Arabidopsis thaliana, UniProt Q9SIV3 1-420)
# T1 sequence: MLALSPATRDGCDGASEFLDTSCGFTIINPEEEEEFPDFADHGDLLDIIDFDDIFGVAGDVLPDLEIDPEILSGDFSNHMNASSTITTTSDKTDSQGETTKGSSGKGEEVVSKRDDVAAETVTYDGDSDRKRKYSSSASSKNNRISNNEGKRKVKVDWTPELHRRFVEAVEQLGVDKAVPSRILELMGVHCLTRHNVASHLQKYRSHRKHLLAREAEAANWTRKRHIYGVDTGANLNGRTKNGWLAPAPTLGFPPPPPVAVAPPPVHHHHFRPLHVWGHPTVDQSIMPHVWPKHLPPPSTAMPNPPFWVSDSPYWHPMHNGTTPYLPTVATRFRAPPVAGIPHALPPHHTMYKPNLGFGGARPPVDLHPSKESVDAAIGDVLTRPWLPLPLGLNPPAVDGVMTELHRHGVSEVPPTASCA
# B1: CAO-probe (dsDNA)
# DNA 1: TTTAGATCCCATGATTCTCAACACGACTGA
# DNA 2: TCAGTCGTGTTGAGAATCATGGGATCTAAA
# Target: T1, GST-GLK1
# Experiment: EMSA; without BPG4; GLK1 EMSA: 10 mM Tris-HCl pH 8.0, 50 mM KCl, 10 mM EDTA, 2.5% glycerol, 1 mM DTT, 0.05 ug/ul poly(dI-dC), 5 pmol probe; proteins preincubated on ice 5 min then
# Conditions: protein: recombinant; tags: N-term GST (pGEX-6P-3); label: FAM; blunt
binder,measurement,value
B1,binding result,binds
